These results are taken from article PMC3832545 (PLoS ONE, 2013).

The subject of series [1] is PI3K signalling pathway in MC38 cell allografts. Description: Signalling in MC38 tumor allografts in vivo, Western blot. The note with it: MC38 tumor allografts collected 1 h after sc administration, DIO-mice. The arrangement: species or system mouse. The method, then:
We focused on different endpoints in these animal experiments and monitored tumor growth in all experiments, see Table 1. The animal experiments were performed as described recently. […] Animal care and treatments were conducted in accordance with established guidelines and protocols approved by the Lady Davis Institute (protocol # 5951) and McGill University's Animal Ethics Committee. Mice were housed one mouse per cage with ad libitum access to tap water and high- or low fat diet, respectively, throughout the studies. The temperature in the animal rooms was maintained at 20-25°C with a light/dark cycle of 14/10 hours. Mice were acclimatized for 7-10 days before experimental procedures were initiated. At experimental day 0, 2.0×10^5 (experiment A) or 5.0×10^5 (all other experiments) MC38 cells, suspended in 100 μl phosphate-buffered saline (PBS), were injected subcutaneously (sc) in the right flank of the mice. […] The size of the tumor allografts was measured three times per week and the volume calculated using the following formula: length × width^2 × 0.52. Based on the tumor volume data for each mouse, we calculated the area under the tumor growth curves (tumor growth AUC). At termination of the experiments, mice were anesthetized with isoflurane. […] Incubation with secondary antibody (horse radish peroxidase-conjugated goat anti-rabbit IgG (Santa-Cruz Biotechnology, Santa Cruz, CA, USA, cat. no 5401) and visualization of protein bands was done as described previously. The intensity of protein bands was quantified using the software ImagePro (BioRad). In each cell signalling experiment, band intensities were normalized to the mean of the vehicle-treated samples. IR and IGF-1R bands in the liver, muscle colon and MC38 cell allografts were normalized to mean band intensities in liver and muscle samples, respectively.

Series [2] in a line: Plasma concentrations (pharmacokinetics) after sc injection in DIO-mice. Format: in vivo, mouse. On the procedure:
The animal experiments were performed as described recently. […] Animal care and treatments were conducted in accordance with established guidelines and protocols approved by the Lady Davis Institute (protocol # 5951) and McGill University's Animal Ethics Committee. Mice were housed one mouse per cage with ad libitum access to tap water and high- or low fat diet, respectively, throughout the studies. […] The size of the tumor allografts was measured three times per week and the volume calculated using the following formula: length × width^2 × 0.52. Based on the tumor volume data for each mouse, we calculated the area under the tumor growth curves (tumor growth AUC). At termination of the experiments, mice were anesthetized with isoflurane. Blood was collected by cardiac puncture and immediately after euthanasia by cervical dislocation, samples of the liver, colon, gastrocnemius muscle and the MC38 cell tumor allografts were dissected out and snap-frozen in liquid nitrogen for later preparation of tissue lysate. Before experiments were initiated, the systemic levels of mouse insulin were measured using a Rat/Mouse Insulin ELISA kit (Millipore Corp., Bilerica, MA, USA), according to manufacturer's instructions. […] Mouse C-peptide was assayed with Rat/Mouse C-peptide 2 ELISA kit (Millipore), according to manufacturer's instructions. […] At termination of experiments whole blood was collected in EDTA-coated tubes (BD Biosciences) by cardiac puncture. […] Mouse C-peptide was assayed with Rat/Mouse C-peptide 2 ELISA kit (Millipore) according to manufacturer's instructions. […] The lower detection limit of the assay was 2 pM. […] Plate wells were coated with a mouse monoclonal anti-insulin antibody OXI005 (Novo Nordisk A/S) coupled to acceptor beads. […] Ten μl of this dilution were added to the wells. […] The lower detection limit of the assay was 233 pM.

Regarding “IGF-1: recombinant human IGF-1 (Increlex, IPSEN Pharma GmbH)”, the “Activation of Akt, p70S6K and mTOR in tumor allografts” value (shortened to “Activation … in tumor allografts”) in series [1] was “pronounced activation”. The “Plasma elimination half-life (t½)” value in series [2] (mouse, in vivo, sc) is recorded as “approximately 70 min”.

human insulin [HI]: in series [1], the “Activation … in tumor allografts” value is reported as “pronounced activation”. Further, in series [2] (DIO-mice, 600 nmol/kg sc, estimated from plasma concentrations […] min, 1 h and 6 h after injection), the “Plasma elimination half-life (t½)” value is on record as “approximately 30 min”. Also, the “Cmax (plasma)” value in series [2] (DIO-mice, 600 nmol/kg sc, plasma, LOCI / wash-LOCI / ELISA) was “approximately 1000 nM”.

Consider insulin analog B10Asp [X10], for which the “Activation … in tumor allografts” value in series [1] was “pronounced activation”. For the same substance, in series [2] (mouse, in vivo, sc), the “Cmax relative to plasma concentrations of endogenous mouse insulin in hyperinsulinemic DIO-mice” value is given as “approximately 1000 fold”, the “Plasma elimination half-life (t½)” value is on record as “approximately 30 min” and the “Time of maximal plasma concentration” value was 15 min.
